No end group written: not given here. *: point of attachment. Oxazole(5-CO) = O=C(c1cnco1)*; Crotonyl(E) = C/C=C/C(=O)*; 2Furoyl = O=C(c1ccco1)*; Cbz = O=C(OCc1ccccc1)*
T1: AF9 YEATS domain, His-AF9 (1-138) (human, UniProt P42568 1-138)
T1 construct: Expressed in E. coli; not shown: His tag
T1 sequence (looked up): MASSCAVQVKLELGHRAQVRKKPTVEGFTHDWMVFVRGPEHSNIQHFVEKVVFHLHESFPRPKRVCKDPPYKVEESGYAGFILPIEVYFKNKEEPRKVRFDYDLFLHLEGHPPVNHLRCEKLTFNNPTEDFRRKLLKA

T2: ENL YEATS domain, His-SUMO-ENL (1-138) (human, UniProt Q03111 1-138)
T2 construct: Expressed in E. coli; not shown: His-SUMO tag
T2 sequence (looked up): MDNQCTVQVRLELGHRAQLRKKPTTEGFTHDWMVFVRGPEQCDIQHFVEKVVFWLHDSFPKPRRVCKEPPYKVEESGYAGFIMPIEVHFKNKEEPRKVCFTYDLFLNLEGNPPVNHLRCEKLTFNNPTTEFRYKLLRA

B1: compound 13 (XL-13) (peptide)
peptide: KQTARK(Oxazole(5-CO))STGG-NH2
modifications: N-terminus assumed
SMILES: C[C@H](NC(=O)[C@@H](NC(=O)[C@H](CCC(N)=O)NC(=O)[C@@H](N)CCCCN)[C@@H](C)O)C(=O)N[C@@H](CCCNC(=N)N)C(=O)N[C@@H](CCCCNC(=O)c1cnco1)C(=O)N[C@@H](CO)C(=O)N[C@H](C(=O)NCC(=O)NCC(N)=O)[C@@H](C)O
notes: also called 4.13
B2: compound 85 (positive control), H3K9cr peptide (peptide)
peptide: KQTARK(Crotonyl(E))STGG-NH2
modifications: N-terminus assumed
SMILES: C/C=C/C(=O)NCCCC[C@H](NC(=O)[C@H](CCCNC(=N)N)NC(=O)[C@H](C)NC(=O)[C@@H](NC(=O)[C@H](CCC(N)=O)NC(=O)[C@@H](N)CCCCN)[C@@H](C)O)C(=O)N[C@@H](CO)C(=O)N[C@H](C(=O)NCC(=O)NCC(N)=O)[C@@H](C)O
B3: compound 7 (XL-07) (peptide)
peptide: KQTARK(2Furoyl)STGG-NH2
modifications: N-terminus assumed
SMILES: C[C@H](NC(=O)[C@@H](NC(=O)[C@H](CCC(N)=O)NC(=O)[C@@H](N)CCCCN)[C@@H](C)O)C(=O)N[C@@H](CCCNC(=N)N)C(=O)N[C@@H](CCCCNC(=O)c1ccco1)C(=O)N[C@@H](CO)C(=O)N[C@H](C(=O)NCC(=O)NCC(N)=O)[C@@H](C)O
notes: also called 4.7
B4: compound 45 (competitor R8-Q) (peptide)
peptide: Cbz-QTAQK(2Furoyl)-NH2
SMILES: C[C@H](NC(=O)[C@@H](NC(=O)[C@H](CCC(N)=O)NC(=O)OCc1ccccc1)[C@@H](C)O)C(=O)N[C@@H](CCC(N)=O)C(=O)N[C@@H](CCCCNC(=O)c1ccco1)C(N)=O
notes: Full structure only as drawing
B5: compound 43 (competitor R8-K) (peptide)
peptide: Cbz-QTAKK(2Furoyl)-NH2
SMILES: C[C@H](NC(=O)[C@@H](NC(=O)[C@H](CCC(N)=O)NC(=O)OCc1ccccc1)[C@@H](C)O)C(=O)N[C@@H](CCCCN)C(=O)N[C@@H](CCCCNC(=O)c1ccco1)C(N)=O
notes: as for B4
B6: compound 74 (competitor Cbz-4) (peptide)
peptide: QTARK(2Furoyl)-NH2
modifications: not fully specified (N-terminus)
notes: as for B4
B7: peptide control (competitor control) (peptide)
peptide: Cbz-QTARK(2Furoyl)-NH2
SMILES: C[C@H](NC(=O)[C@@H](NC(=O)[C@H](CCC(N)=O)NC(=O)OCc1ccccc1)[C@@H](C)O)C(=O)N[C@@H](CCCNC(=N)N)C(=O)N[C@@H](CCCCNC(=O)c1ccco1)C(N)=O
B8: compound 47 (competitor A7-L) (peptide)
peptide: Cbz-QTLRK(2Furoyl)-NH2
SMILES: CC(C)C[C@H](NC(=O)[C@@H](NC(=O)[C@H](CCC(N)=O)NC(=O)OCc1ccccc1)[C@@H](C)O)C(=O)N[C@@H](CCCNC(=N)N)C(=O)N[C@@H](CCCCNC(=O)c1ccco1)C(N)=O
notes: as for B4
B9: compound 49 (competitor A7-W) (peptide)
peptide: Cbz-QTWRK(2Furoyl)-NH2
SMILES: C[C@@H](O)[C@H](NC(=O)[C@H](CCC(N)=O)NC(=O)OCc1ccccc1)C(=O)N[C@@H](Cc1c[nH]c2ccccc12)C(=O)N[C@@H](CCCNC(=N)N)C(=O)N[C@@H](CCCCNC(=O)c1ccco1)C(N)=O
notes: as for B4
B10: compound 53 (competitor T6-A) (peptide)
peptide: Cbz-QAARK(2Furoyl)-NH2
SMILES: C[C@H](NC(=O)[C@H](C)NC(=O)[C@H](CCC(N)=O)NC(=O)OCc1ccccc1)C(=O)N[C@@H](CCCNC(=N)N)C(=O)N[C@@H](CCCCNC(=O)c1ccco1)C(N)=O
notes: as for B4
B11: compound 55 (competitor T6-S) (peptide)
peptide: Cbz-QSARK(2Furoyl)-NH2
SMILES: C[C@H](NC(=O)[C@H](CO)NC(=O)[C@H](CCC(N)=O)NC(=O)OCc1ccccc1)C(=O)N[C@@H](CCCNC(=N)N)C(=O)N[C@@H](CCCCNC(=O)c1ccco1)C(N)=O
notes: as for B4
B12: compound 5 (XL-05) (peptide)
peptide: KQTARK(isonicotinoyl)STGG-NH2
notes: also called 4.5
B13: compound 15 (XL-15) (peptide)
peptide: KQTARKSTGG-NH2
modifications: not fully specified (residue 6); also: Lys6 acylated with group R, structure drawing only
notes: also called 4.15
B14: compound 16 (XL-16) (peptide)
peptide: KQTARKSTGG-NH2
modifications: not fully specified (residue 6); also: Lys6 acylated with group R, structure drawing only
notes: also called 4.16
B15: compound 3 (XL-03) (peptide)
peptide: KQTARKSTGG-NH2
modifications: not fully specified (residue 6); also: Lys6 acylated with group R, structure drawing only
notes: also called 4.3
B16: compound 2 (XL-02) (peptide)
peptide: KQTARKSTGG-NH2
modifications: not fully specified (residue 6); also: Lys6 acylated with group R, structure drawing only
notes: also called 4.2
B17: compound 10 (XL-10) (peptide)
peptide: KQTARKSTGG-NH2
modifications: not fully specified (residue 6); also: Lys6 acylated with group R, structure drawing only
notes: also called 4.10
B18: compound 12 (XL-12) (peptide)
peptide: KQTARKSTGG-NH2
modifications: not fully specified (residue 6); also: Lys6 acylated with group R, structure drawing only
notes: also called 4.12
B19: compound 9 (XL-09) (peptide)
peptide: KQTARK(Arg)STGG-NH2
modifications: also: Lys6 acylated with group R, shown only as a drawing
notes: also called 4.9
B20: compound 86 (negative control), XL-17 (peptide)
peptide: KQTARK(cyclopentanecarbonyl)STGG-NH2
notes: also called 4.17
B21: compound 11 (XL-11) (peptide)
peptide: KQTARKSTGG-NH2
modifications: not fully specified (residue 6); also: Lys6 acylated with group R, structure drawing only
notes: also called 4.11
B22: compound 14 (XL-14) (peptide)
peptide: KQTARK(4‑oxazolecarbonyl)STGG-NH2
notes: also called 4.14
B23: compound 6 (XL-06) (peptide)
peptide: KQTARK(2‑pyrimidinecarbonyl)STGG-NH2
notes: also called 4.6
B24: compound 4 (XL-04) (peptide)
peptide: KQTARKSTGG-NH2
modifications: not fully specified (residue 6); also: Lys6 acylated with group R, structure drawing only
notes: also called 4.4
B25: compound 8 (XL-08) (peptide)
peptide: KQTARK(3‑furancarbonyl)STGG-NH2
notes: also called 4.8
B26: compound 25 (XL-07i) (peptide)
peptide: H-KQTARK(2Furoyl)-NH2
SMILES: C[C@H](NC(=O)[C@@H](NC(=O)[C@H](CCC(N)=O)NC(=O)[C@@H](N)CCCCN)[C@@H](C)O)C(=O)N[C@@H](CCCNC(=N)N)C(=O)N[C@@H](CCCCNC(=O)c1ccco1)C(N)=O
notes: also called 4.7i
B27: compound 24 (XL-07h) (peptide)
peptide: H-QTARK(2Furoyl)-NH2
SMILES: C[C@H](NC(=O)[C@@H](NC(=O)[C@@H](N)CCC(N)=O)[C@@H](C)O)C(=O)N[C@@H](CCCNC(=N)N)C(=O)N[C@@H](CCCCNC(=O)c1ccco1)C(N)=O
notes: also called 4.7h

Biological target: T1, AF9 YEATS domain, His-AF9 (1-138)
Assay: ITC

Compared with B1, B3 is lower in “fold binding enhancement over the native crotonyl group (H3K9cr)” value: 14.8 fold for the first, 4.5 fold for the second.

B2 was tested, and the Kd was 14800 nM.

Biological target: T1, AF9 YEATS domain, His-AF9 (1-138)
Assay: ITC
Remark: another data set of the same source

First: B1
Second: B2
The Kd of the first is 15-fold lower: 1000 nM for the first, 14700 nM for the second. The first binds more tightly here.

B3 was tested, and the Kd was 3300 nM.

Compared with B1, B2 is lower in “N (sites)” value: 1.04 sites for the first, 0.96 sites for the second.

In the case of B3, the “N (sites)” value is reported as 0.91 sites.

Compared with B1, B2 is higher in ΔH: -12.3 kcal/mol for the first, -11.9 kcal/mol for the second.

Work on B3 yielded a ΔH of -12.2 kcal/mol.

First: B1
Second: B2
The ΔS of the first is higher: -13.8 cal/mol/deg for the first, -17.8 cal/mol/deg for the second.

B3 gave a ΔS of -15.9 cal/mol/deg.

Biological target: T1, AF9 YEATS domain, His-AF9 (1-138)
Assay: photo-cross-linking competition screen at 0.3 µM, in-gel fluorescence

B4: binds.
B5: binds.

Biological target: T1, AF9 YEATS domain, His-AF9 (1-138)
Assay: photo-cross-linking competition vs photoaffinity probe, in-gel fluorescence

B6 and B7 are within 1.5-fold of each other in IC50: 226 nM for the first, 189 nM for the second.

B8 and B9 are within 1.5-fold of each other in IC50: 338 nM for the first, 315 nM for the second.

B10 and B11 are within 1.5-fold of each other in IC50: 715 nM for the first, 778 nM for the second.

Biological target: T1, AF9 YEATS domain, His-AF9 (1-138)
Assay: as above
Remark: another data set of the same source

Compared with B12, B13 is 12-fold higher in IC50: 2100 nM for the first, 24500 nM for the second. The first is the more potent here.

Going from B14 to B15, the IC50 rises from 12600 nM to 22100 nM (1.8-fold).

Compared with B16, B1 is 40-fold lower in IC50: 29800 nM for the first, 740 nM for the second.

B17 and B18 are within 1.5-fold of each other in IC50: 10600 nM for the first, 10400 nM for the second.

B2 and B19 are within 1.5-fold of each other in IC50: 6000 nM for the first, 6500 nM for the second.

Going from B6 to B20, the IC50 rises from 230 nM to 34500 nM (150-fold). The first is the more potent here.

First: B21
Second: B22
The IC50 of the first is 5.2-fold higher: 15700 nM for the first, 3000 nM for the second. The second is the more potent here.

First: B23
Second: B3
The IC50 of the first is 2.8-fold higher: 3700 nM for the first, 1300 nM for the second.

First: B24
Second: B25
The IC50 of the first is 13-fold higher: 22200 nM for the first, 1700 nM for the second.

Compared with B26, B27 is 9.8-fold higher in IC50: 460 nM for the first, 4500 nM for the second.

B8 and B9 are within 1.5-fold of each other in IC50: 340 nM for the first, 320 nM for the second.

B10 and B11 are within 1.5-fold of each other in IC50: 720 nM for the first, 780 nM for the second.

Biological target: T2, ENL YEATS domain, His-SUMO-ENL (1-138)
Assay: as above

B2 was tested, and the IC50 was 52700 nM.
